Experiments:
C. neoformans = test: Survival of C. elegans infected with C. neoformans; type: in vivo; details: 1 nM peptide
Description: FIGS. 6A-6D: EntV peptides have activity against many fungal species and strains. Survival over time of C. elegans infected with C. auris, (FIG. 6A), C. neoformans, (FIG. 6B), and C. albicans, (FIG. 6C), paired clinical isolates before (AzS: fluconazole-susceptability) and after gaining fluconazole resistance (AzR), (FIG. 6D). Peptides were added at 1 nM and fluconazole at 4 ug/ml. Statistical differences in survival were compared to animals to the DMSO vehicle control by Mantel-Cox log rank analysis. An n of 60 was used and one representative trial is shown. Exact p values from top to bottom: (FIG. 6A) <0.0001, <0.0001, (FIG. 6B) <0.0001, <0.0001, (FIG. 6C) 0.0013, 0.0004, 0.0035, (FIG. 6D) 0.0050, 0.0040, 0.5539.
EntV peptides have activity against other fungal species and strains. […] Paired clinical isolates of C. albicans, in which fluconazole-resistance had been gained following in-patient evolution were tested and it was determined that animals infected with both the original strain as well as the fluconazole-resistant descendent were protected by EntV ([…]).
Killing of C. elegans by C. albicans. […] Plates were incubated at 25° C., and worm death was scored daily. Kaplan-Meier survival curves were generated and analyzed as described in the quantification and statistical analysis section.

C. albicans [1] = test: Growth of C. albicans in shaking cultures; type: cell-based
Description: These shorter peptides are no longer bacteriocins, having separated the antifungal and antibacterial activities. Furthermore, despite its robust protection against infection, EntV is not toxic to C. albicans. Growth of C. albicans was unaffected when EntV was added to shaking cultures in concentrations as high as 30 μM

C. albicans [2] = test: Killing of C. elegans by C. albicans (survival of infected nematodes); type: in vivo; details: original strain and fluconazole-resistant descendent; 1 nM

VAGQLALWAVQC [12aa]
Survival of C. elegans infected with C. neoformans (C. neoformans): protected C. neoformans infected worms from death

B1: EntV: 68 amino acid active C-terminal form of the E. faecalis bacteriocin EntV (SEQ ID NO: 14) (protein, listed as Enterococcus faecalis)
chain: LGSCVANKIKDEFFAMISISAIVKAAQKKAWKELAVTVLRFAKANGLKTNAIIVAGQLALWAVQCGLS
Highest concentration at which growth of C. albicans was unaffected (C. albicans [1]): ≥ 30 µM | Protection of C. elegans infected with paired C. albicans clinical isolates (C. albicans [2]): protected

From patent US20250250308A1, “METHODS AND COMPOSITIONS WITH ANTIFUNGAL ACTIVITY” (priority 2022, published 2025)
